Test results from US20160271157A1, “BETA-CATENIN” (UCL BUSINESS PLC, priority 2013, published 2016).

What was measured:
PC3 cells [1] = test: Scratch wound assay; assay type: cell-based; conditions: wounded PC3 cells, ±Wnts and thapsigargin, vs control untreated cells
Protocol: PC3 cells were grown in 24 well, ImageLock plates (Essen Bioscience, MI) to confluency and scratched using a wound maker device (Essen Bioscience, MI). Imaging (at 2 h intervals) and quantitation of wound width was performed as described earlier (Wang at al., (2010) PLoS ONE 5, e10456) using Incucyte (Essen Bioscience, MI). The rate of wound closure (±Wnts and thapsigargin) was calculated by fitting the line using linear regression function in Origin software (Origin Lab Corp., MA). Statistical significance of difference between the slopes for untreated and treated samples was calculated using F-test.

PC3 cells [2] = test: Intranuclear calcium and membrane potential imaging (Fluo4 and FM4-64); assay type: cell-based; conditions: Wnt5A 100 ng/ml
Protocol: The imaging protocol was developed in the inventor's laboratory and has been described in detail, elsewhere (Wang at al., (2010) PLoS ONE 5, e10456). Briefly, 100000-200000 PC3, MCF7, 253J or Cos 7 cells were plated on 35 mm FluoroDish (WPI) and grown for 48 h; calcium indicators Fluo-4 (Invitrogen) and FuraRed (Invitrogen) at 1 ng/ml were added to FluoroDish containing only 1 ml of culture medium and incubated for 15-20 min at 37° C. The culture medium was removed and washed (×2) and replaced with 1 ml PBS. Live cell calcium Imaging was performed on an Olympus FluoView FV 1000 confocal microscope (Olympus […]) equipped with a 20× dry objective (numerical aperture=0.75). Calcium indicators were excited with an argon laser line (488 nm) and emissions recorded in the green channel (500-560 nm) for Fluo-4 and red channel (600-700 nm) for FuraRed after addition of vehicle control (PBS) or Wnt X (30-600 ng/ml). Images were acquired every 1.1 or 2.2 seconds for up to 600-800s; image and data acquisition was performed using FluoView 1000 software (Olympus, UK). Fluorescent intensity was measured and data exported as a tab delimited file for further analysis using a spreadsheet. All imaging experiments were performed in duplicate; intracellular calcium at 100 ng/ml was measured in at least 3-12 different passages (passage numbers 25 to 37) of cell line for each Wnt ligand. […]

Molecule	rate of wound closure (PC3 cells [1])	delay of increase in intranuclear Ca2+ after start of increase in [Ca2+]i (PC3 cells [2]; Fluo4 and FM4) [s]	FM4 signal (depolarization) of cell and nuclear membranes (PC3 cells [2]; t=250s)
C/C=C(/C)C(=O)O[C@H]1C(C)=C2[C@H]([C@@H]1OC(=O)CCCCCCC)[C@@](C)(OC(C)=O)C[C@H](OC(=O)CCC)[C@@]1(O)[C@H]2OC(=O)[C@@]1(C)O [thapsigargin, reference compound]	significant decrease	–	–
Wnt5A: Recombinant Wnt peptide purchased from R&D systems (protein, UniProt P41221 62-380, looked up) Protein Wnt-5a: IIGAQPLCSQLAGLSQGQKKLCHLYQDHMQYIGEGAKTGIKECQYQFRHRRWNCSTVDNTSVFGRVMQIGSRETAFTYAVSAAGVVNAMSRACREGELSTCGCSRAARPKDLPRDWLWGGCGDNIDYGYRFAKEFVDARERERIHAKGSYESARILMNLHNNEAGRRTVYNLADVACKCHGVSGSCSLKTCWLQLADFRKVGDALKEKYDSAAAMRLNSRGKLVQVNSRFNSPTTQDLVYIDPSPDYCVRNESTGSLGTQGRLCNKTSEGMDGCELMCCGRGYDQFKTVQTERCHCKFHWCCYVKCKKCTEIVDQFVCK	–	~33	increase in the FM4 signal in the cell and nuclear membranes
